# Laboratory results as given in the nanobody polyreactivity screen of Harvey et al. (2022).
# Assay: yeast display, Sf9 membrane polyspecificity reagent, FACS + sequencing; frameworks hold sequencing errors
# Procedure, shortened: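 A nanobody's polyreactivity label depends on the gate it was sorted from. Yeast display cells were stained with 10% biotinylated, detergent-solubilized Sf9 membrane reagent for 1 hour at 4 °C, enriched on streptavidin microbeads and sorted by FACS. The low and high (top ~1%) gates were set on anti-HA fluorescence for expression and streptavidin fluorescence for reagent binding.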
row,Sequence,polyreactivity (PSR sort gate)
1,QVQLVESGGGLVQAGGSLRLSCAASGRIFRYNAMGWYRQAPGKERELVAAISRGGSSTYYADSVKGRFTISRDNAKNTVYLQMNSLKPEDTAVYYCNARSVVREFNYWGQGTQVTVSS,high polyreactivity
2,QVQLVESGGGLVQAGGSLRLSCAASGRIFRYNAMGWYRQAPGKERELVAAISWSGGSTYYADSVKGRFTISRDNAKNTVYLQMNSLKPEDTAVYYCNARYRYSVTGYDYWGQGTQVTVSS,high polyreactivity
3,QVQLVESGGGLVQAGGSLRLSCAASGRIFRYNAMGWYRQAPGKERELVAAITNGGSTNYADSVKGRFTISRDNAKNTVYLQMNSLKPEDTAVYYCAAEGNGYLVSTWWVRYEYWGQGTQVTVSS,low polyreactivity
4,QVQLVESGGGLVQAGGSLRLSCAASGRIFRYYAMGWFRQAPGKERELVASISRRGGSTNYADSVKGRFTISRDNAKNTVDLQMNSLKPEDTAVYYCNAENSSPRGLYNYWGQGTQVTVSS,high polyreactivity
5,QVQLVESGGGLVQAGGSLRLSCAASGRIFRYYAMGWSRQAPGKERELVADISRRGGSTYYADSVKGRFTISRDNAKNTVYLQMNSLKPEDTAVYYCNARWYRTGSTYHEDYWGQGTQVTLSS,high polyreactivity
6,QVQLVESGGGLVQAGGSLRLSCAASGRIFRYYAMGWYRQAPGKERELVAAISSGGSTYYADSVKGRFTISRDNAKNTVYLQMNSLKQEDTAVYYCAADRRYSYNWGHGTQVTVSS,high polyreactivity
7,QVQLVESGGGLVQAGGSLRLSCAASGRIFRYYAMGWYRQAPGKERELVAAISSSGGSTYYADSVKGRFTISRDNAKNTVDLQMNSLKPEDTAVYYCAAKYSRRSSVSYYYWGQGTQVTVSS,high polyreactivity
8,QVQLVESGGGLVQAGGSLRLSCAASGRIFRYYAMGWYRQAPGKERELVAAISYSTGGTYYADSVKGRFTISRDNAKNTVYLQMNSLIPEDTAVYYCAARGPLDRYGYWGQGTQVTVSS,high polyreactivity
9,QVQLVESGGGLVQAGGSLRLSCAASGRIFRYYAMGWYRQAPGKERELVAAITRGGSTNYADSVKGRFTISRDNAKNTVYLLMNSLKPEVTAVDYCNAPYWKSRFRAYYHWGQGTQVTVSS,high polyreactivity
10,QVQLVESGGGLVQAGGSLRLSCAASGRIFRYYAMGWYRQAPGKERELVAAITRGGSTNYADSVKGRFTISRDNAKNTVYLQMNSLKPEDSAVFYCATRESCYPRWMDYWGQGTQVTVSS,high polyreactivity
11,QVQLVESGGGLVQAGGSLRLSCAASGRIFRYYAMGWYRQAPGKERELVARITSGGSTYYADSVKGRFTLSRDNAKNTVYLQMNSLKPEDTAVYYCAAETTRWHPWYDYWGQGTQVTVSS,high polyreactivity
12,QVQLVESGGGLVQAGGSLRLSCAASGRIFRYYAMGWYRQAPGKERELVASIARRGGSTNYADSVKGRFTISRDNAKNTVYVQMNSLKPEDTAVYYINAENWSPRGLYNYWGQGTQVTLSS,high polyreactivity
13,QVQLVESGGGLVQAGGSLRLSCAASGRIFRYYAMGWYRQAPGKERELVATISRSGGSTFYADSVKGRFTISRDNGKNPVYLQMNSLKPEDSAVYYCNARYQTGCYGYWGQGTQVTVSS,high polyreactivity
14,QVQLVESGGGLVQAGGSLRLSCAASGRIFRYYAMGWYRQAPGKESELVAAINSGGSTKYADSVKGRFTISRDNAKNTVYLQMNSLKPEDTAVYYCNKDHAFSRYWYGGFDYWGQGTQVTVSS,high polyreactivity
15,QVQLVESGGGLVQAGGSLRLSCAASGRIFRYYAMGWYRQAPGKESELVAAITASGGSTYYADSVKGRFTISRDNAKNTVYLQMNSLKPEDTAVYYCATEYVVYRSWVPKYGYWGQGTQVTVSS,high polyreactivity
16,QVQLVESGGGLVQAGGSLRLSCAASGRIFRYYAMGWYRQAPPKERELVAAIRWSGGRTYYADSVKGRFTISRDNAKNTVYLQMNSLKPEDTAVYYCAADSPYKMDYWGQGTQVTVSS,high polyreactivity
17,QVQLVESGGGLVQAGGSLRLSCAASGRIFRYYAMGWYRQATGKERELVAAISRSGGSTYYADSVKGRFTISRDNAKNTVYLQMNSLKPEDTAVYYCNAQWRSTDPYPPGYDYWGQGTQVTVSS,high polyreactivity
18,QVQLVESGGGLVQAGGSLRLSCAASGRIFRYYPMGWYRQATGKERELVAAITASGGSTYYADSVKGRFTISRDNAKNTVYLQMNSLKPEDTAVYYCAARVAQVAYPDGYWGQGTQVTVSS,high polyreactivity
19,QVQLVESGGGLVQAGGSLRLSCAASGRIFRYYTMGWYRQAPGKERELVAAISGRGGRTYYADSVKGRFTISRDNAKNTVYLQMNSLKPEDTAVYYCNAYDHPIYRLDYWGQGTQVTVSS,high polyreactivity
20,QVQLVESGGGLVQAGGSLRLSCAASGRIFSANAMGWYRQAPRKERELVAGIDSGGSTNYADSVKGRFTISRDNSKNTVYLQMNSLKPEDTAVYYCNAEDHKYEYDSWGQGTQVTVSS,low polyreactivity
21,QVQLVESGGGLVQAGGSLRLSCAASGRIFSAYAIGCYRQSPWKERELVSAISRSGGRTYYADSVKGSFTISRDNAKNTVYLQMNSLKPEDTAVYYCAAARFAIVRGDYCGQGTQVTVSS,high polyreactivity

row,Sequence,polyreactivity (PSR sort gate)
1,QVQLVESGGGLVQAGGSLRLSCAASGRIFSAYAMGLYRQAPGKERELVAAITSVGSTKYADSVKGRFTISRDNAKNTVYLQMNSLIPEDTAVYYCAAEYTRSFYIYYRFGYWGQGTQVTVSS,high polyreactivity
2,QVQLVESGGGLVQAGGSLRLSCAASGRIFSAYAMGWYRQAPGKERELVAAISRSRGRTYYADSVKGRVTISRDNAKNTVYLQMNSLKPEDTAVYYCAAARFAIVRGDYWGQGTQVTVSS,high polyreactivity
3,QVQLVESGGGLVQAGGSLRLSCAASGRIFSAYAMGWYRQAPGKERELVAANSRSGGRTYYADSVKGRFTISRDNAKNTVYLQMNSLKPDDTAVYYCAVLWHGRRPLYKLRTGPEYDYWGQGTQVTVSS,high polyreactivity
4,QVQLVESGGGLVQAGGSLRLSCAASGRIFSDYAMGWYRQAPGKERELVATITSGDSTNYEDSVKGRFTISRDNAKNTVYLQMNSLKPVDTAVYYCIADRYADYDYWGQGTQVTVSS,low polyreactivity
5,QVQLVESGGGLVQAGGSLRLSCAASGRIFSFNAMGRYRQAPGKERELVAAITWRGGSTYYADSVKGRFTISRDNAKNTVYLQMNSLKPEDTAVYYCNAYPFWRDYDYWGQGTQVTVSS,high polyreactivity
6,QVQLVESGGGLVQAGGSLRLSCAASGRIFSFNAMGWYRQAPGKERELVATIRTDGTTNYADSVKGRFTISRDNAKNTVYLQMNSLKPEDTAVYYCAANRKRFAFGYWGQGTQVTVSS,high polyreactivity
7,QVQLVESGGGLVQAGGSLRLSCAASGRIFSFYTMGWYRQAPGKERELVAAISGSGGSTYYADSVKGRFTISRDNANNTFYLQMNSLKPEDTAVYYCAAGYGFRYYLYDYWGQGTQVTVSS,high polyreactivity
8,QVQLVESGGGLVQAGGSLRLSCAASGRIFSFYVMGWYRQAPGKERELVAAISLSGGSTYYADSVKGRFTISRDNAMNTVYLQMNSLKPEDTAVYYCNAVLYARQRDRWARYDYWGQGTQVTVSS,high polyreactivity
9,QVQLVESGGGLVQAGGSLRLSCAASGRIFSGYAMGWYRQAPGKERELVAAISGGGSTNYADSVKGRFTISRDNAKNTVYLQMNSLKPEDTAVYYCATQYGHYPYWLYKYDYWGQGTQVTVSS,low polyreactivity
10,QVQLVESGGGLVQAGGSLRLSCAASGRIFSGYAMGWYRQAPGKERELVAAITSRSGSTYYADSVKGRFTISRDNAKNTVYLQMNSLKPEDTAVYYCAAEYVRFYWYTSAYWGQGTQVTVSS,low polyreactivity
11,QVQLVESGGGLVQAGGSLRLSCAASGRIFSGYVMGWYRQPPGKERELVAAISRSGGSTYYADSVKGRFTISRDNAKNTVYLQMNSLKPEDTAVYYCNADWYKRHYDYWGQGTQVTVSS,high polyreactivity
12,QVQLVESGGGLVQAGGSLRLSCAASGRIFSHNVMGWYRQAPGKERELVAAISWSSGSTYYADSVKGRFTISRDNAKNTVYLQMNSLKPEDTAVYYCNAATRPTGDYWGQGTQVTVSS,low polyreactivity
13,QVQLVESGGGLVQAGGSLRLSCAASGRIFSHYAMGWYRQAPGKERELVAAINRSGGSTYYADSVKGRFTISRDNAKNTVYLQMNSLKPEDTAVYYCAADVKYGYDWGQGTQVTVSS,high polyreactivity
14,QVQLVESGGGLVQAGGSLRLSCAASGRIFSINAMGWYRQAPGKERELVASISSGGSTKYADSVKGRFTISRDNAKNTVYLQMNSLKPEDTAVYYCAARGRVYRYGYWGQGTQVTVSS,high polyreactivity
15,QVQLVESGGGLVQAGGSLRLSCAASGRIFSIYAMGSYRQAPGKERELVAAISFRGTSTYADSVKGRFTISRDNAKNTVYLQMNSLKPEDTAVYYCAVTGFDFLWPSLGGELDYWGQGTQVTVSS,low polyreactivity
16,QVQLVESGGGLVQAGGSLRLSCAASGRIFSIYGMGWSRQAPGKEREFVASITYSGGSTYYADSVKGRFTISRDNAKNTVYLQMNSLQPEDTAVYYCAKYVFSAYDYWGQGTLVTVSS,low polyreactivity
17,QVQLVESGGGLVQAGGSLRLSCAASGRIFSKKAMGWYRQAPGKERELVARIRWTGGITYYADSVKGRFTISRDNAKNTVYLQMNSLKPEDTAVYYCAADYLWGTWTTYFRPLLYDYWGQGTQVTVSS,low polyreactivity
18,QVQLVESGGGLVQAGGSLRLSCAASGRIFSKNAMGCYRQQPGKERELVAAISRSGGGTYYADSVKGRFTISRDTAKNTVYLQMNSLKPEDTAVYYCATRYGSWGQGTQVTVSS,high polyreactivity
19,QVQLVESGGGLVQAGGSLRLSCAASGRIFSKNVRGWYRQAPGKERELVADISNTGRTYYADSVKGRFKISRDNAKNTVYLQMNSLKPEDTAVYYCAADIAYRYFAVEFSSYTGDYWGQGTQVTVSS,low polyreactivity
20,QVQLVESGGGLVQAGGSLRLSCAASGRIFSKYAMGWYRQAPGKERELVASIRWRGDRTYYADSVKGRFTISRDNAKNTVDLQMNSLIPEDTAVYYCAADEPGYGVGYWTYPVVPYDYWGQGTQVTVSS,low polyreactivity
